Test results taken from the supplement of paper PMC9876800.

Tested on: peptide library, one residue held at a place counted from the S/T acceptor
Test: relative phosphorylation of the sub-library (ratio to the mean residue at this position); higher = residue favoured
Conditions: human
How it was run: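 Human or orthologue kinase constructs, purified and recombinant, were incubated under kinase-specific conditions in 384-well plates with biotinylated degenerate peptide sub-libraries. Each sub-library fixed one residue at one position around a central Ser/Thr. Incubations lasted 90 min with peptides at 50 μM and 50 μM ATP spiked with γ-32P-ATP, after which spots on streptavidin membranes were phosphorimaged and quantified by densitometry. Relative sub-library phosphorylation is a ratio to the mean residue at that position.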

BMPR1B, construct: aa149-end, sequence (O00238 149-502, looked up): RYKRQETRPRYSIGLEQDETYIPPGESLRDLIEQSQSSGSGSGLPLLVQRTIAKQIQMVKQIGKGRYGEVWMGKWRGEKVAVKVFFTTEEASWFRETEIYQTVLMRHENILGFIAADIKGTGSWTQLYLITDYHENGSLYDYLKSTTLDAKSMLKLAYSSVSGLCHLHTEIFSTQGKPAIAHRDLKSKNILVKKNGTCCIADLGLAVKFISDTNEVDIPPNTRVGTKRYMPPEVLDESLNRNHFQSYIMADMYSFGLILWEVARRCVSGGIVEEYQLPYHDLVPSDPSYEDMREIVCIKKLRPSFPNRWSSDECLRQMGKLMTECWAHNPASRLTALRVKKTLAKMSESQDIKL
ATM, construct: Full length, sequence (Q13315 whole entry, looked up): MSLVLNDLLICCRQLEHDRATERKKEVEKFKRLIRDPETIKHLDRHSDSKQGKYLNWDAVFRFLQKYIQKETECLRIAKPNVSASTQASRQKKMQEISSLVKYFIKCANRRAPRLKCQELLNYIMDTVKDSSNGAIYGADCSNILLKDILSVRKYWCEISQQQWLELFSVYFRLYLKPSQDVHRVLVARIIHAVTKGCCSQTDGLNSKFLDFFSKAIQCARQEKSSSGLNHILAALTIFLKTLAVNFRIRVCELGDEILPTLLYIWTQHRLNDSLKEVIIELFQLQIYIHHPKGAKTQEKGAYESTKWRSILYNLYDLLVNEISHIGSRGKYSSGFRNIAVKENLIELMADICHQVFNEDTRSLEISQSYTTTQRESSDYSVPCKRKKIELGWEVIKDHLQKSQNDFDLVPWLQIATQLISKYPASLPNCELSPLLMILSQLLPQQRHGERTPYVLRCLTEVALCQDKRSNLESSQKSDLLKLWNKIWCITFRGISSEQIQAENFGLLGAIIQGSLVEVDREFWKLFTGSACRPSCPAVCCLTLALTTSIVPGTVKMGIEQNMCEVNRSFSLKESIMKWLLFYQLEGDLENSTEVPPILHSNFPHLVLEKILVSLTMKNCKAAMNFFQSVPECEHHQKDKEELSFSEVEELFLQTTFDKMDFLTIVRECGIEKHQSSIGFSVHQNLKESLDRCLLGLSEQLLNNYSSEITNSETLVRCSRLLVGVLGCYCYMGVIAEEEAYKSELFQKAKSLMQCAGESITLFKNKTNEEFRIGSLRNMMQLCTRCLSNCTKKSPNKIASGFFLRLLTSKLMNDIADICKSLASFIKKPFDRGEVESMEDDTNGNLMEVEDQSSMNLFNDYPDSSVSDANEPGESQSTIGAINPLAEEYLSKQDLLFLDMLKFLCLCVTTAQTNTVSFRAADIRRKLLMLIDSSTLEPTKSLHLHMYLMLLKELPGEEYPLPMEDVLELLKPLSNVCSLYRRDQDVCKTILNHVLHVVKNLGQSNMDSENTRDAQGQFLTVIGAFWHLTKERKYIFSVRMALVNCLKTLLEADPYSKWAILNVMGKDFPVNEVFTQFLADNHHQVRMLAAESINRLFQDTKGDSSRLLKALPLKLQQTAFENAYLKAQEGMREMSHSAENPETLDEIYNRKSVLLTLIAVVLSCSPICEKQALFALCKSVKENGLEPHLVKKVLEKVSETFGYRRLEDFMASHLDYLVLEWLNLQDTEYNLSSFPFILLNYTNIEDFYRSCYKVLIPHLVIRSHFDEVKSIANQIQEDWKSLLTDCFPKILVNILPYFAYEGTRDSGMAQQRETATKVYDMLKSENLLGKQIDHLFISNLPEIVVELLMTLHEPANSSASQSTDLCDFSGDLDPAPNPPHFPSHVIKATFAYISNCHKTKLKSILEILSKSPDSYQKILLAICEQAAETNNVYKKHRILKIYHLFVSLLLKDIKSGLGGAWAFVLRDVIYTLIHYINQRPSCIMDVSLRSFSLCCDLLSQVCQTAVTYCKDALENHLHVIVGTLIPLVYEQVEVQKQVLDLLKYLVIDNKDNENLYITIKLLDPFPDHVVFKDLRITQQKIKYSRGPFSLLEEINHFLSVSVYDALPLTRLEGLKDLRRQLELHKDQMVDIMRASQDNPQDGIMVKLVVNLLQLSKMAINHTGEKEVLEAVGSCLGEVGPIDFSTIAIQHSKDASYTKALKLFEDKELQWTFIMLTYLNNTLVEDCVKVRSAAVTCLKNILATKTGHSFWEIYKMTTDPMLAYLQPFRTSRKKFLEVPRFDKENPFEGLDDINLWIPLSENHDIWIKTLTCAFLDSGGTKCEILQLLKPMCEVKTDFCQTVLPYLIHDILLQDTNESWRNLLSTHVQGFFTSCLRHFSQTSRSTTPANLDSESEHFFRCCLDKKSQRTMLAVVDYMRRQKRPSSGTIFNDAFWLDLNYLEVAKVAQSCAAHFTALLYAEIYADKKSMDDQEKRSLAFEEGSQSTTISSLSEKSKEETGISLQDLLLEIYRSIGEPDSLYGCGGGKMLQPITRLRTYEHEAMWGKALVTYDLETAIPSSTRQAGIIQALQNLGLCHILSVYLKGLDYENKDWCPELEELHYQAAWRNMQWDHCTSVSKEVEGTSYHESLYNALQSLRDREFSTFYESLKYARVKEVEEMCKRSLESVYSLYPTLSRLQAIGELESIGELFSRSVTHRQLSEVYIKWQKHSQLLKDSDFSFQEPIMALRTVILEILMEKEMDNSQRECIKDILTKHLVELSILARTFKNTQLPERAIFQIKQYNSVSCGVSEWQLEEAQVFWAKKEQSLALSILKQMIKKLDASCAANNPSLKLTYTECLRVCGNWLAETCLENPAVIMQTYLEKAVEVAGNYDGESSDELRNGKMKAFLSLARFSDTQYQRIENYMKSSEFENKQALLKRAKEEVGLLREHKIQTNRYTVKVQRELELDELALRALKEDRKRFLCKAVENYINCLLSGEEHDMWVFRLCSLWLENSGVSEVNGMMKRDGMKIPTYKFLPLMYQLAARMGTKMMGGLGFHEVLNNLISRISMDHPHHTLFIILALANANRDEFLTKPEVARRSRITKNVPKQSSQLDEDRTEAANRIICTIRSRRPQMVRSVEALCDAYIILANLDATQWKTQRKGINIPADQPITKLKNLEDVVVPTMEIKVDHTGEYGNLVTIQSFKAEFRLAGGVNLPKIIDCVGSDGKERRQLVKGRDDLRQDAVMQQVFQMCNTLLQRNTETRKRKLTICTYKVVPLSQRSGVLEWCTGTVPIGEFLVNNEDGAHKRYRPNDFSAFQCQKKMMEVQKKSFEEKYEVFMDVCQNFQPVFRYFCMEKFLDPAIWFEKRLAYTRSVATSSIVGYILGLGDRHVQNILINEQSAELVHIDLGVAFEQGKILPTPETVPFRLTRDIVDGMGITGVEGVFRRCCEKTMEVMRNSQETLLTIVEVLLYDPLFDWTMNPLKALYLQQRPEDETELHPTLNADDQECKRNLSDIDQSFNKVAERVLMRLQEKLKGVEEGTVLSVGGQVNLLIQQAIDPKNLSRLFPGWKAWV
CAMK2A, construct: Full length, sequence (Q9UQM7 whole entry, looked up): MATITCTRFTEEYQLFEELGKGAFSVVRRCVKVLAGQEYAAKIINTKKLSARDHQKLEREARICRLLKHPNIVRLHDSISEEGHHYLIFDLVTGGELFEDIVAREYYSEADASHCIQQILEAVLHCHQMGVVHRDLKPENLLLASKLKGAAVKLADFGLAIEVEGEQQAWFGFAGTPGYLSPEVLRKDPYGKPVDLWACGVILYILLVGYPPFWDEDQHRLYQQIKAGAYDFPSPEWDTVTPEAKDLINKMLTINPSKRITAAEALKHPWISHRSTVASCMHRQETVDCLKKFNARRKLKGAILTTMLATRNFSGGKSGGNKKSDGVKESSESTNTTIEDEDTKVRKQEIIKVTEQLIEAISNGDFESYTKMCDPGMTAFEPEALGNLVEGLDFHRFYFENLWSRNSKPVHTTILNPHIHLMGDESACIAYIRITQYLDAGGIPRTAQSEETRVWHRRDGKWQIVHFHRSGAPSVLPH

ATM, construct: Full length (from UniProt Q13315)
relative phosphorylation
Conditions | at +1 | at +2 | at +3 | at +4 | at -1 | at -2 | at -3 | at -4 | at -5
A fixed | 0.429 | 0.858 | 0.748 | 0.776 | 0.759 | 1.18 | 0.922 | 0.959 | 1.1
D fixed | 0.42 | 2.02 | 1.28 | 1.27 | 2.27 | 1.56 | 1.26 | 1.3 | 1.11
E fixed | 0.85 | 2.16 | 1.45 | 1.45 | 1.62 | 1.77 | 1.52 | 1.5 | 1.08
F fixed | 0.701 | 0.658 | 1.5 | 1.23 | 1.1 | 0.868 | 1.14 | 1.2 | 1.4
G fixed | 0.361 | 0.756 | 0.691 | 0.922 | 1.06 | 0.93 | 0.848 | 0.995 | 0.987
H fixed | 0.38 | 0.918 | 0.67 | 0.84 | 1.09 | 0.936 | 0.936 | 0.912 | 0.879
I fixed | 0.594 | 0.872 | 1.03 | 1.08 | 0.405 | 0.685 | 0.814 | 0.906 | 1.06
K fixed | 0.384 | 0.649 | 0.5 | 0.499 | 0.376 | 0.696 | 0.681 | 0.721 | 0.662
L fixed | 0.621 | 0.77 | 1.59 | 1.11 | 1.56 | 0.692 | 0.867 | 0.96 | 0.987
M fixed | 0.672 | 0.787 | 1.26 | 1.25 | 1.05 | 0.85 | 1.18 | 0.995 | 0.971
N fixed | 0.748 | 1.21 | 0.742 | 0.791 | 1.83 | 1.24 | 0.842 | 0.789 | 0.859
P fixed | 0.448 | 1.1 | 0.742 | 0.779 | 0.412 | 0.906 | 0.643 | 0.819 | 0.784
Q fixed | 8.34 | 1.1 | 0.989 | 0.787 | 0.731 | 1.28 | 0.792 | 0.733 | 0.617
R fixed | 0.648 | 0.839 | 0.545 | 0.577 | 0.518 | 1.13 | 1.66 | 0.865 | 0.894
V fixed | 0.521 | 1.01 | 0.875 | 0.873 | 0.387 | 0.716 | 0.671 | 0.818 | 1.1
W fixed | 0.421 | 0.514 | 1.31 | 1.51 | 0.525 | 0.736 | 1.06 | 1.27 | 1.26
Y fixed | 0.466 | 0.798 | 1.08 | 1.25 | 1.31 | 0.823 | 1.17 | 1.25 | 1.25
pThr fixed | 0.577 | 1.47 | 0.933 | 1.49 | 0.748 | 1.37 | 1.15 | 1.21 | 0.84
pTyr fixed | 0.468 | 1.85 | 1.26 | 2.74 | 3.86 | 1.68 | 1.7 | 1.23 | 1.05

BCKDK, construct: Full length (from UniProt O14874)
relative phosphorylation
Conditions | at +1 | at +2 | at +3 | at +4 | at -1 | at -2 | at -3 | at -4 | at -5
A fixed | 0.707 | 0.962 | 0.785 | 0.937 | 0.696 | 0.951 | 0.894 | 0.988 | 1.02
D fixed | 0.393 | 1.11 | 2.51 | 0.922 | 1.32 | 0.571 | 0.616 | 0.717 | 0.856
E fixed | 0.404 | 0.981 | 1.16 | 0.957 | 0.351 | 0.544 | 0.654 | 0.821 | 0.72
F fixed | 0.915 | 0.909 | 1.11 | 1.13 | 0.742 | 1.19 | 1.26 | 1.14 | 1.18
G fixed | 0.489 | 1.36 | 1.11 | 0.99 | 1.3 | 1.72 | 1.09 | 1.18 | 1.14
H fixed | 0.698 | 1.31 | 0.929 | 0.973 | 1.69 | 1.33 | 1.17 | 1.14 | 1.26
I fixed | 1.59 | 0.502 | 0.71 | 0.645 | 0.565 | 0.913 | 0.854 | 0.871 | 0.794
K fixed | 0.483 | 0.704 | 0.538 | 0.577 | 0.425 | 0.901 | 0.8 | 0.886 | 1.02
L fixed | 2.58 | 0.628 | 1.03 | 0.656 | 0.607 | 0.855 | 0.877 | 0.964 | 0.858
M fixed | 2.1 | 0.966 | 0.889 | 0.781 | 0.577 | 1.05 | 1.01 | 1.1 | 0.962
N fixed | 0.513 | 1.16 | 0.754 | 0.761 | 4.15 | 0.917 | 0.932 | 0.786 | 0.944
P fixed | 0.404 | 0.61 | 0.831 | 1.08 | 0.432 | 0.866 | 0.976 | 1.05 | 0.819
Q fixed | 0.69 | 1.17 | 0.749 | 0.724 | 0.619 | 0.867 | 0.804 | 0.75 | 0.678
R fixed | 0.671 | 1.43 | 0.834 | 0.859 | 0.562 | 0.893 | 1.02 | 0.937 | 1.01
V fixed | 1.84 | 0.553 | 0.641 | 0.709 | 0.514 | 0.699 | 0.734 | 0.791 | 0.879
W fixed | 0.688 | 1.35 | 1.53 | 2.53 | 1.06 | 1.51 | 1.74 | 1.64 | 1.73
Y fixed | 1.84 | 1.28 | 0.896 | 1.76 | 1.39 | 1.23 | 1.57 | 1.24 | 1.13
pThr fixed | 0.535 | 0.616 | 0.681 | 0.682 | 0.541 | 0.847 | 0.904 | 0.931 | 0.896
pTyr fixed | 0.502 | 0.681 | 0.53 | 1.46 | 0.581 | 0.994 | 1.31 | 1.14 | 0.896

BMPR1B, construct: aa149-end (from UniProt O00238)
relative phosphorylation
Conditions | at +1 | at +2 | at +3 | at +4 | at -1 | at -2 | at -3 | at -4 | at -5
A fixed | 1.07 | 1.39 | 1.01 | 0.984 | 0.997 | 0.924 | 1.21 | 1.09 | 1.34
D fixed | 1.83 | 1.33 | 1.58 | 0.977 | 1.64 | 2.17 | 2.03 | 2.24 | 1.67
E fixed | 5.67 | 1.49 | 1.56 | 1.15 | 1.77 | 6.66 | 2.3 | 1.75 | 1.49
F fixed | 0.422 | 0.61 | 0.873 | 1 | 0.771 | 0.382 | 0.596 | 0.674 | 0.73
G fixed | 0.798 | 1.57 | 0.953 | 1.03 | 0.637 | 0.725 | 1.14 | 1.26 | 1.2
H fixed | 0.552 | 0.988 | 0.857 | 0.895 | 0.919 | 0.493 | 0.923 | 0.855 | 0.972
I fixed | 0.631 | 0.606 | 0.753 | 0.984 | 0.833 | 0.496 | 0.586 | 0.704 | 0.681
K fixed | 0.404 | 1.04 | 0.655 | 1.14 | 0.73 | 0.386 | 0.69 | 0.818 | 0.938
L fixed | 0.503 | 0.727 | 0.935 | 0.888 | 1.1 | 0.553 | 0.663 | 0.733 | 0.766
M fixed | 0.62 | 0.757 | 0.869 | 0.949 | 1.29 | 0.497 | 0.773 | 0.86 | 0.798
N fixed | 0.743 | 0.911 | 0.961 | 0.926 | 0.901 | 0.679 | 1.08 | 0.92 | 1
P fixed | 0.344 | 1.38 | 1.13 | 1.21 | 0.627 | 0.499 | 0.977 | 0.998 | 1.09
Q fixed | 0.676 | 0.809 | 0.945 | 0.981 | 0.965 | 0.702 | 1.07 | 1.01 | 0.839
R fixed | 0.48 | 0.842 | 0.891 | 0.924 | 0.791 | 0.439 | 0.803 | 0.801 | 0.869
V fixed | 1.2 | 0.664 | 0.97 | 0.908 | 1.02 | 0.581 | 0.697 | 0.769 | 0.921
W fixed | 0.519 | 0.897 | 1.01 | 1.02 | 0.844 | 0.397 | 0.659 | 0.744 | 0.892
Y fixed | 0.528 | 0.985 | 1.04 | 1.04 | 1.17 | 0.415 | 0.795 | 0.764 | 0.799
pThr fixed | 6.15 | 2.16 | 1.11 | 1.13 | 1.03 | 2.23 | 2.34 | 1.67 | 1.35
pTyr fixed | 1.18 | 0.924 | 1.3 | 0.928 | 1.8 | 0.801 | 1.81 | 1.51 | 1.41

CAMK2A, construct: Full length (from UniProt Q9UQM7)
relative phosphorylation
Conditions | at +1 | at +2 | at +3 | at +4 | at -1 | at -2 | at -3 | at -4 | at -5
A fixed | 0.609 | 0.742 | 0.885 | 0.931 | 0.81 | 1.37 | 0.689 | 1.08 | 0.921
D fixed | 0.816 | 5.44 | 2.48 | 1.96 | 1.65 | 0.692 | 0.352 | 0.607 | 0.452
E fixed | 1.32 | 2.31 | 2.59 | 1.81 | 1.16 | 0.765 | 0.464 | 0.985 | 0.461
F fixed | 2.06 | 0.382 | 0.664 | 0.797 | 0.567 | 0.62 | 0.53 | 0.867 | 1.36
G fixed | 0.59 | 0.713 | 1.11 | 1.11 | 0.789 | 1.02 | 0.591 | 0.941 | 0.758
H fixed | 0.848 | 0.976 | 1.06 | 1.1 | 1.05 | 0.992 | 0.978 | 1.08 | 1.05
I fixed | 1.09 | 0.334 | 0.431 | 0.511 | 0.374 | 0.31 | 0.369 | 0.656 | 0.866
K fixed | 0.719 | 0.694 | 0.803 | 0.792 | 1.36 | 1.21 | 2.13 | 1.42 | 0.793
L fixed | 1.09 | 0.331 | 0.642 | 0.513 | 0.629 | 0.4 | 0.378 | 0.733 | 1.79
M fixed | 1.42 | 0.387 | 0.515 | 0.568 | 0.753 | 1.07 | 0.517 | 0.96 | 1.06
N fixed | 0.955 | 1.02 | 1.06 | 0.977 | 1.65 | 1.09 | 0.706 | 0.689 | 0.618
P fixed | 0.594 | 0.73 | 1.01 | 1.55 | 1.88 | 0.659 | 1.13 | 1.43 | 1.25
Q fixed | 1.41 | 0.696 | 0.973 | 1 | 1.37 | 2.96 | 0.902 | 1.04 | 0.747
R fixed | 0.735 | 0.781 | 0.762 | 0.557 | 1.02 | 1.47 | 5.38 | 1.4 | 1.27
V fixed | 1.22 | 0.44 | 0.614 | 0.664 | 0.527 | 0.389 | 0.379 | 0.776 | 0.867
W fixed | 0.527 | 0.452 | 0.634 | 1.15 | 0.5 | 1.21 | 0.837 | 1.31 | 1.59
Y fixed | 1 | 0.574 | 0.774 | 1.01 | 0.905 | 0.765 | 0.665 | 1.02 | 1.15
pThr fixed | 1.89 | 1.82 | 2.45 | 4.37 | 0.489 | 0.486 | 0.496 | 0.738 | 0.605
pTyr fixed | 1.53 | 4.53 | 2.49 | 2.88 | 1.8 | 0.503 | 0.514 | 0.804 | 0.813
